Assay results: patent CN113817056A (CHONGQING PREC BIOTECH CO LTD; CHONGQING JINGZHUN BIO …, dated 2021)

How the values were obtained:
hCD70-hFc [1] = biological target: T1, hCD70-hFc (human, UniProt P32970 39-193, limits assumed); assay: BLI, scFv on HIS1K sensor, hCD70-hFc analyte; row for 25 nM (same fit value in all rows)
T1 construct: the order here follows the printed name; not shown: human immunoglobulin Fc (hFc)
T1 sequence (looked up): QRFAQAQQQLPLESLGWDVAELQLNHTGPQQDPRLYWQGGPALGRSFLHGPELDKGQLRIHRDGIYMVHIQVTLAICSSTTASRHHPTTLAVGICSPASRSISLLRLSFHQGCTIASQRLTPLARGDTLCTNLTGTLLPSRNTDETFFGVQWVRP

hCD70-hFc [2] = biological target: T1, hCD70-hFc; assay: BLI, scFv on HIS1K sensor, hCD70-hFc analyte; row for 50 nM (same fit value in all rows)
hCD70-hFc [3] = biological target: T1, hCD70-hFc; assay: BLI, scFv on HIS1K sensor, hCD70-hFc analyte; row for 100 nM (same fit value in all rows)
hCD70-hFc [4] = biological target: T1, hCD70-hFc; assay: BLI, scFv on HIS1K sensor, hCD70-hFc analyte; row for 12.5 nM (same fit value in all rows)

- Kd (hCD70-hFc [1]): 21.4 nM
- koff (hCD70-hFc [1]): 0.0016 s⁻¹
- kon (hCD70-hFc [1]): 74000 M⁻¹ s⁻¹
- Kd (hCD70-hFc [2]): 21.4 nM
- koff (hCD70-hFc [2]): 0.0016 s⁻¹
- kon (hCD70-hFc [2]): 74000 M⁻¹ s⁻¹
- Kd (hCD70-hFc [3]): 21.4 nM
- koff (hCD70-hFc [3]): 0.0016 s⁻¹
- kon (hCD70-hFc [3]): 74000 M⁻¹ s⁻¹
- Kd (hCD70-hFc [4]): 21.4 nM
- koff (hCD70-hFc [4]): 0.0016 s⁻¹
- kon (hCD70-hFc [4]): 74000 M⁻¹ s⁻¹
B1: 靶向CD70 ScFv (scFv, V domains shown)
VH: EVQLVQSGPEVKKPGASVKVSCKASGYTFTDYYMNWVRQMHGKGLEWMGVINPYNGGTDYNQKFKGRVTITADKSTSTAYMELSSLRSEDTAVYYCARSVYDYPFDYWGQGTLVTVSS
VL: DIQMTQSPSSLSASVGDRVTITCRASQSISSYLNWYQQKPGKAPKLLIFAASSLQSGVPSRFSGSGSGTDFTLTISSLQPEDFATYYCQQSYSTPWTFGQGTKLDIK
